From the supplement of paper PMC12764529
± gives the half width of the 95% confidence interval.

Tests used:
[1] = folding stability dG unfold from chymotrypsin proteolysis; higher = more stable
Protocol: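 Folding stability of de novo designed mini-proteins (<80 aa, no Cys; designed by TrROS, TrMRF, ProteinMPNN and the joint model) was measured by cDNA display proteolysis with trypsin and chymotrypsin. Each protease was used at 11 concentrations in a threefold dilution series plus a no-protease condition. K50 was inferred by Bayesian fitting of sequencing counts, and dG unfold was derived against a sequence-predicted unfolded-state K50 (Tsuboyama et al. method). Sequences shown include variable-length N-terminal GS-type padding (SAGGSAGG...) inside a display construct carrying a PA tag. Rows were kept only if the AF2 dimer inter-PAE was >15, to exclude likely homo-oligomers.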

[2] = folding stability dG unfold (combined trypsin and chymotrypsin); higher = more stable
Summary of the method: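 Bayesian fitting of sequencing counts gave K50 for each design. Unfolding free energy followed by setting this against a sequence-predicted unfolded-state K50 and a shared folded-state K50, either per protease or with trypsin and chymotrypsin combined. The designs, under 80 residues and lacking cysteine, were digested in a PA-tagged cDNA display format at 11 threefold-diluted protease concentrations and without protease, and only those with AlphaFold2 dimer inter-PAE above 15 were kept.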

Sequence | folding stability dG unfold [1] [kcal/mol] | folding stability dG unfold [2] [kcal/mol]
SAGGMESPVKAVDPSTGAERSFTIPREEAEALLAAGETTIEIPYSGGPMTVEITPLPDGTYAITGKAPSAGG [r13_171_JUSTAS] | 0.206 ± 0.24 | -0.16 ± 0.14
SAGGSAGGSAGGMPVSVETKLIEKDPVEDVEISLETFPGTDLRVIVTKTKNEVKKTVIPKSAGGSAGGSAGG [r17_370_JUSTAS] | -0.252 ± 0.13 | -0.719 ± 0.51
SAGGSAGGSAAVVVNATPDDGFTIYDPATGERLADAEVTKTNGDSLNLPHPDGRAVAVDPRKSAGGSAGGSA [r18_363_JUSTAS] | 0.231 ± 0.084 | -0.373 ± 0.47
SAGGSAGGSAGGTVVPEKEARELARKVAEKGEPIEVEIGDPGPKKPRTVLITPEDLEERSAGGSAGGSAGGS [r10_779_JUSTAS] | -0.219 ± 0.18 | < -1
SAGGSAGGSAGGSGPEELAAAARAAHPELGAPVRVEVTYTPEAGEFPVRVFLPEDGAALSAGGSAGGSAGGS [r4_312_JUSTAS] | -0.335 ± 0.14 | < -1
SAGGSAGGSAGGMPPEETVTVTIVESKPVPDPEGNPVEPLPVKTTTITVPASNPEALAAKSAGGSAGGSAGG [r7_439_JUSTAS] | 0.00655 ± 0.072 | -0.487 ± 0.21
SAGGSAGGSAGGMVPGETVTITIPVPPTGKEVPVEISTTLPPEEREALAEAKAAELEAALSAGGSAGGSAGG [r7_957_JUSTAS] | 0.602 ± 0.025 | -0.199 ± 0.11
SVPVTDETLYPDPSNALPISLVSQLGPDGSSVTTSITLPGRSMTQSVDPSTGRVTGNYPGTGLSSTVTSVPS [r1_125_JUSTAS] | 0.348 ± 0.051 | 0.0698 ± 0.11
SAGGSAAPPFKVEIETEALPGPVVTRTIKVEPGSTVTIYDPGRDEALTFPVAPGTELVFTFDGTDASAGGSA [r15_224_TrMRF] | 0.849 ± 0.044 | 0.342 ± 0.1
SAGEPNKIKVKVKIRMWMPRKDPDGQQAEPHPMPMTFEYKAPWEDAKNIIDSMPPGMQIDKIDKIEPLSAGG [r19_114_TrROS] | 0.226 ± 0.3 | 0.109 ± 0.29
SAGGSAGGSAGGMLVTETKPLPTPRTVATVVLLSTEEAPLPSGVLVRRETTEVKLVELISAGGSAGGSAGGS [r10_718_JUSTAS] | -0.503 ± 0.61 | < -1
SAGGSAGMPTTVFLTRPGPRAITMRTDPVSGTVTFTLPSGEVTTTPLSTVKELKVPPDIATVTILASAGGSA [r15_1043_JUSTAS] | -0.365 ± 0.29 | -0.609 ± 0.24
SAGGSAGGSGYSVSVSEDFSSSPETRTVTTTTTSPSSGPLVTTTTTTTSPIPPRTPAEVAAAASAGGSAGGS [r12_841_JUSTAS] | 0.697 ± 0.029 | 0.327 ± 0.048
SAGGSAGGSAGGKKEREFKFPGAPIQAPVERNPANGKLKIDVEVTGDNPDWAKRLADAFSAGGSAGGSAGGS [r10_582_TrROS] | -0.513 ± 0.56 | < -1
SAGGSAGGSAITIKELAKEGYTIEIRPPDGKKETFKPGDSVDDPAEEFDLPPNWRIEIRPPSAGGSAGGSAG [r3_216_TrROS] | -0.382 ± 0.3 | < -1
SAGGSAEPTGPPDVEVKRSTSVEGGLTLTPVTYTSPDNTETLVITYTTDPAGNLSSTTATVPPDLVSAGGSA [r15_986_JUSTAS] | 0.276 ± 0.36 | -0.00361 ± 0.28
SAGGSAGGSAGGSMEVVETEEPGPGEERIRIVRFKEKTIVTRTPPDGVPTSEELPISELSAGGSAGGSAGGS [r10_1075_JUSTAS] | 0.0261 ± 0.2 | -0.247 ± 0.2
SAGGSAGGSADEFVVVADLPEGGEARLLVLPLPDGSYLVAEAEAERHGDRTVLHVKVTPAESAGGSAGGSAG [r3_281_TrMRF] | 0.595 ± 0.11 | -0.0917 ± 0.14
SAGGSALPPGQKIKMKFPDDGKKMTITFNPGQNNIEIENDGKKETYPFDSVEDLLDEFGWKVLDIESAGGSA [r15_500_TrROS] | 0.465 ± 0.073 | -0.0488 ± 0.19
SAGGAPAAGDVVETETLRLERDEPDTITLTRLRTVEVVLPDGRVLTRTESETVRLEATDEEAVELAESSAGG [r13_544_TrMRF] | 0.883 ± 0.22 | 0.397 ± 0.14
SAGGSAGGYRITIKDPDGVKIEIWQGPNGMMPIKVENPNGKKRERMVNGPPGDIEDFLKELLKQSAGGSAGG [r6_27_TrROS] | 0.378 ± 0.31 | -0.125 ± 0.59
SAGGSAGGSAGMNIVVSSEEEAEKAIKELAKKLGKPNNLKNPKVTVIPLEPTPTGGLKKKSAGGSAGGSAGG [r17_237_JUSTAS] | 0.226 ± 0.077 | -0.301 ± 0.16
SAGGSAGGSAGGGKVTVYTDPKGGVVITTTETPDSITATVVDPSGKTTTVTVPPGAPLLSAGGSAGGSAGGS [r10_976_JUSTAS] | 0.243 ± 0.18 | -0.183 ± 0.38
